Measured values: the DeepSol protein solubility set

test: soluble on expression in E. coli; label from the status in PepcDB or PDB records

Row | Sequence | soluble on expression in E. coli
1 | MGSDKIHHHHHHMIIDAHTHVWPEKIAAKALAGRVPGMEAKFDGTVAGLKRSMDAAGIDHCVAFGIADHARHVERANEFISSQRSDWLTPFGTIHLDLSVEENMEILQRHGIKGVKLHPLFQRFRLDDRRLWALFDAFGSDIAVITHVGFGGQGSANENSTPQMIVDIARNFPKLRFMACHFGGFRRLDEAEKYVVGLPIVLETSWPPGLAEIPTERLRAIVHRHGPDRIIFGSDWPMVDPADEIEAIRRLELHPDDEAAILGGNLARILGMES | not soluble
2 | MIEVGDLKKGMFIIYDGEIYRVLEASKHFMGRGSGLIRTKLKNVKTGFVREVNFPSGEKVQEAELSFRKAQYLYRDGDHYYFMTLDDYEQYALSEEEIGDAKYYLVENMEVDLVFHEGTPIGIELPTTVELTVVETEPSFKGDTVSGGGKPAVLETGLKITVPYFIEVGDKIKVDTRTGEYVGRA | soluble
3 | MAADISESSGADCKGDPRNSAKLDADYPLRVLYCGVCSLPTEYCEYMPDVAKCRQWLEKNFPNEFAKLTVENSPKQEAGISEGQGTAGEEEEKKKQKRGGRGQIKQKKKTVPQKVTIAKIPRAKKKYVTRVCGLATFEIDLKEAQRFFAQKFSCGASVTGEDEIIIQGDFTDDIIDVIQEKWPEVDDDSIEDLGEVKK | not soluble
4 | MSLTRRNDAIAVVVTEPQNRLFVDPFFDRHLRGIRQELVRQGAQLVLLLIEEPDDYPRVGNFLGGGHVDGALLFSLRGDDPLPEMVDRMGLPAVFGGRPVLSPEDRGHRYTYVDADNRGGAREAVRHLVAQGRERIATITGPLNQAAAVDRLDGYRDVLPDSAPDLIVEGDFTLRGGVDAMAELLARCPDLDAVFAASDLMACGALRVLKEHGRRVPEDVAVIGFDDLPPLVETTEPSLTTVHQDIEGMGRLMARLLFERIPATPLDDGDHSLHRVITPTRLILRKTAEGHHHHHH | not soluble
5 | MGSSHHHHHHSSGRENLYFQGHMRILWILPYSPWPTTSGGKTRQYHLLRSLAARGHRITVLLHSKQPVSAEDRQALEPFLERLVVLPRRPLRSLSTLLAALFAPYPLLASVNGLSAELQRTATELLREPWDVVQVEHSYSFQPYERPLRDAGQPFVLTEHNVESSLGAATYDRLPGWALPFVRYDQWRYRRWERRVMSQAAAVVAVTEKDARQLGAMLGRPVPVVVNGVDCEHFATARPTPEAQRVLFLGNYEYAPNVDAVEWMLDEILPRVWAHCPEARMSVCGYALPAEWAQRWSDPRIEWQGFVPDLLQLQSSSSVFLAALRHGGGSKLKVLEALAAGLPLASTAQGVSGLELRDGEDYLGGESAEQLANAVVRLLQDPAQARALGENGRAYVRRAHDWSVAASQLEQVYAGLAEGAPACA | soluble
6 | MTSRKAKESAHMSASDIISTFNDFFTNFPANKSFDMTYKVYLKDLADADEELTSSRRNSELNLTENKPITIASCGFVPQMMSSSTVKNLSLSSSATNFNSEKSEIGSKITMNPAKQVLKGRNTRKKRSMVDLSQINKIFGRDYNPPAPSSKSPPTIYVNLGVIYSSSSSHASDASSISSHTSVSSTFTEKQHEFGKLVPSGTDGSLELFVKVADCFD | not soluble
7 | MQARRYLLRPAARLRRSRRIATAAPERLWLFDLDNTLHDTSHAIFPLIDRGMTEAVAETLAVDEATANRLRAEYWRRYGATVIGLVRHHGVDADAFLHRSHNFEVAPLVRAETALADKLRRLPGRKVLLTNAPLHYARAVLRHLGLLRQFDSIWAIEQMCMHGQFRPKPSDALLRYVLAREGVPAARAVLIEDTLDNLRSARRVGLRTVHVFHPGTPFARGHRQRPGYVDLRVNSVSDLLLRRRPLRG | not soluble
8 | MGSDKIHHHHHHMLGLIKKKANTLLGIDISSTSVKLLELSRSGGRYKVEAYAVEPLPPNAVVEKNIVELEGVGQALSRVLVKAKTNLKSAVVAVAGSAVITKTIEMEAGLSEDELENQLKIEADQYIPYPLEEVAIDFEVQGLSARNPERVDVLLAACRKENVEVREAALALAGLTAKVVDVEAYALERSYALLSSQLGADTDQLTVAVVDIGATMTTLSVLHNGRTIYTREQLFGGRQLTEEIQRRYGLSVEEAGLAKKQGGLPDDYDSEVLRPFKDAVVQQVSRSLQFFFAAGQFNDVDYIVLAGGTASIQDLDRLIQQKIGTPTLVANPFADMALNGKVNAGALASDAPALMIACGLALRSFD | not soluble
9 | GGVQLNFGGNFTYNKNEILSLGNVDVQKDARTIRMVGKEFNAFYGYKSDGIFQSKEEIANAPKYTMISNDRLIPGDIKLVDINGDGEINPDDKVILSSENPKYTFAFNLGARWKMFDINLFFQGAAGVSRYFTDEFYGEFNGDSGHPSNHWLGRWTPENPTNKWPRASKFRTYNLPETTCSDFWLVNTNYLRLKDIQVGFNVPKEWLQAVRLGSARIYYSGTNLLTFSKTPQGIDPEAPAGWGAYYPHVKTHSIGINITL | not soluble
10 | MTTQSTLQSVPALGTHPASGSNPSRAETREQLSKASYDLLVIGGGILGISTAWHAAQSGLRVAVVDAGDFAGATSSASSKLLHGGLRYLQTGAVKLVAENHFERRAVSRQVAPHLANPLTFYLPVYKGGPHGAAKLGAGVFAYSALSAFGDGVGHLLSPAKAAQDVPELRTDNLKAVAVYGDDQMNDARMALMTVRAAVESGAVVLNHAEVTGLRFTGGRVTGAELKDRLSGDEFGVNARLVLNATGPWVDHLRRMEDPAAAPSIRLSKGAHLVLKRTAPWKAALATPIDKYRITFALPWEDMLLLGTTDEEFEGDPADVAVNDKDITQILDEAAFSIRDQQLDRDLITYSFAGLRVLPGGPGDTAKAKRETVVTEGRGGMLSVAGGKWTTFRHIGRTVMKKLEALPGHPLGDDFEPIASLPKKLPLPGVANPRAVAHRLLVDGSAPGPRMAADTARHLATHYGSLAFDIARLANESPELARRVHPDAPEIWAQVVWARDNEWAETADDVLRRRTTLTIRGLATDDVRAQVQDVLDKKLEHHHHHH | not soluble
11 | MSLSMLPSFGFTQEQVACVCEVLQQGGNLERLGRFLWSLPACDHLHKNESVLKAKAVVAFHRGNFRELYKILESHQFSPHNHPKMQQLWLKAHYVEAEKLRGRPLGAVGKYRVRRKFPLPRTIWDGEETSYCFKEKSRGVLREWYAHNPYPSPREKRELAEATGMTTTQVSNWFKNRRQRDRAAEAKERENTENEGHHHHHH | not soluble
12 | MTTARDIMNAGVTCVGEHETLTAAAQYMREHDIGALPICGDDDRLHGMLTDRDIVIKGLAAGLDPNTATAGELARDSIYYVDANASIQEMLNVMEEHQVRRVPVISEHRLVGIVTEADIARHLPEHAIVQFVKAICSPMALAS | soluble
13 | MAHHHHHHGPNTNPVAAWKALKEGNERFVAGRPQHPSQSVDHRAGLAAGQKPTAVIFGCADSRVAAEIIFDQGLGDMFVVRTAGHVIDSAVLGSIEYAVTVLNVPLIVVLGHDSCGAVNAALAAINDGTLPGGYVRDVVERVAPSVLLGRRDGLSRVDEFEQRHVHETVAILMARSSAISERIAGGSLAIVGVTYQLDDGRAVLRDHIGNIGEEV | soluble
14 | MGSDKIHHHHHHFEEVNTDPDSPTDVPTTNLLAYSLYYTSYRLYDRWFAMDEPMTFCGYASKMTYIDESRYNFRTGVQDTNWEYLYRILNNLKDIEKRATFNETPNMLNVSKVMQVHLMQVATDRWRDVPYTDAAKMTDGILQPKYDKQEDIYPGLLATLKEAADGFADGGSDDLGEGDLLFGGDIEKWQRYCNSMRLRLAMRISEVSPALAKETVEEVMGNPTKYPIMESNDDNAFFWWIGTDPNYYEPMADGYRTRKTEYCAADVIVDHMNTREDPRRSSYFQPTKESVEAGEPKYVGYTIGAKANAVASKYSIWGARFFTDLAGFSPYMRVAEPWFCVAEASMLGWNTGISAEDAYNKAVTYSMEENSVSAEDIADYLANAGKFTNDKKQIYYEEWVAMFKQGMEGWSLYRRTGVPDNLYPAPGRPANYSNHNVPPFRSPYPDKERNLNNANCAPFDAEVVDNLWGKQMWWDTRTGVH | not soluble
15 | MNNSLIVRQLGLQDYQEIWHKMQDFTDTRNAETQDEIWLVQHYPVFTQGQAGKPEHLLQRSEIPVVQSVRGGQITYHAPGQQVMYVLIDIKRHKNLNVRQLVTALEQTVVKTLAEYGIESYPKPDAPGVYVDGKKICSLGLRIRRGCSFHGLALNINMDLNPFHYINPCGYAGLEMCQLADFVNQDKADCDNVSAKLIKHFANLLGYNITTLLEHHHHHH | soluble
16 | MKKVQTPLFQGITENEWNEMQNCSCMRQQSFEKNELIFRMGESVREIGIVLTGSVNIENVDLWGNKSLLSNISAGQVFAETYAFCQEPLMVNAVAAEYTNLLFLNLETLMQPRYKDTLWTDKIMQNLLRISIYKNLILSNRIFCTTPKTIRGRLLIYLSSQASKAESTVFQISFNRQELADYLNLDRSALSKELGKMRDEGILEFRKNQFVLHQLPE | not soluble
17 | AHHHHHHGSIRVRNLSFSYNGRAILRDIAFEVKEGEFLAILGPNGAGKSTLLRCLAKILKCEGEIEICGRNLHEYSRRELSKTIAYVPQRVEPNFLRVFDMVLLGRKPYMGIIPSEEDIKAVERALKTLKIEHLAGRLTKTLSGGELQKVAIARALAQESSIILLDEPTNNLDPRSQVDLMNLLRKLSQAGKTIVTVMHDINLALRFAEKLMFMKNGEVVGIVETKKISPEIIEETFNVKAEIFETPSGVKFCQFY | soluble
18 | MGSDKIHHHHHHMPTLEPKIPGISLNYVVPTPEPELLTGVPVFFGLVTEEVKEAKKLTLATHFQQYFGQAKGYLADAIKGFFENGGRLCYVIALSNNTLEALQQGLETSEVLENIDLICVPDIMLGSDGEVIQMQQAILKHCEQMGDRFAILDALNDIGKLNEQRKRISSQNGALYAPWLKVEFRVDPIPACGHIAGIYASCDRTVGVHGAPANIPLAGVLDLSFSLTPTDQEQLNPKNEAGVNCIRSFQGRGMRVWGVRTLSPIPEWQYVNVRRLFLTFGRWVNRNLADTVFEPNAFPLWVRLQRELSIYCESLWRQGAIQGALPQEAFYVKCDAETNPPENREMGQVIAEIGLAPTIPGEFIQLLVVQSSSGITLT | not soluble
19 | GRHLFVLEREAKLKDYLATADITRVEKGDTKFGVVTAGTCYPYLREVLPNATVLKLGASWPLPDTLLREFCASVDQVFVVEELEPIIEKEVASLGIKVEGKRLFPRAGEFSPEVVRAGFVQAGLLPAPPSYNAWVPEPVVRPPVLCAGCPHTSSFLAVRASGARVAGDIGCYTLAVLDPLRGIDTCVAMGSSIGNAIGMAKAGEAKPVVATIGDSTFLHAGLPALIDAVYNQANIAVVLLDNHITAMTGGQEH | not soluble
20 | MGSDKIHHHHHHAAVGEKLGWPQQKISKIESGEQKRIPAAELDALLEVYGVTDPQIRESLHECARLAKERGWWTRYKDAFPSGLPDFESEASVIRSYECQVIPGILQTPDYADAIFRAYKLREDKEIDRLVKARMERQNILNRVDPPHFMTIIDEAALHRLVGSVEVMRTQLRHLTHMASRHNIDIYVLPFKAGAHAATTGSFMIMDFPDPMDNSIVYVDTPTSILYIEDEEEVREFNVMFSRTQSAALSPTLSMDLVKKVIKSLEE | not soluble
21 | MSLSYPWPDAGTALNAISTPMPVIDEDRLAANILRAQSYLDAHGKTFRPHIKTHKIPAIAKQQLQAGAIGINCQKVSEAEVFADAGFEDILITYNILGAAKLSRLKALNARIGRLSVVADSAVTIAGLADTFDAARPLAVLVECDTGGKRCGVQTPEAALALAEQIVSASGLIFRGILTYPAPGGAEMVEKFIRETMALLATKGIDCPVRSSGGSPDFYSAHLVASATEHRAGTYIYNDRSMLRAGHCSAGDLAMHVLATVVSKPTADRAVLDSGSKALTSDLLGFNDYGLLEGYEGAKIISLSEEHAVVDLSGCTGARPEIGDVVQVVPNHTCVVSNLFDRMVFHRNGVVTRVEQVAARGTVWEGHHHHHH | soluble
